Experimental data taken from article PMC10577934, “Semi-rational engineering an aldo–keto reductase for stereocomplementary reduction of α-keto amide compounds” (Microbial Cell Factories, 2023).
Positions count from the first letter of the chain named. Numbers in names are those of the source.

Substrate: O=C(Nc1ccccc1)C(=O)c1ccccc1
Test: initial velocity by HPLC of product, nonlinear Michaelis-Menten fit
Assay type: biochemical, Bacillus subtilis
Conditions: NAD(P)H cofactor, potassium phosphate 100 mM pH 7.0, 30 °C
Text: initial velocity by HPLC of product, nonlinear Michaelis-Menten fit on iolS

B1: iolS (Bacillus subtilis subsp. subtilis str. 168) (protein)
chain: MKKAKLGKSDLQVFPIGLGTNAVGGHNLYPNLNEETGKELVREAIRNGVTMLDTAYIYGIGRSEELIGEVLREFNREDVVIATKAAHRKQGNDFVFDNSPDFLKKSVDESLKRLNTDYIDLFYIHFPDEHTPKDEAVNALNEMKKAGKIRSIGVSNFSLEQLKEANKDGLVDVLQGEYNLLNREAEKTFFPYTKEHNISFIPYFPLVSGLLAGKYTEDTTFPEGDLRNEQEHFKGERFKENIRKVNKLAPIAEKHNVDIPHIVLAWYLARPEIDILIPGAKRADQLIDNIKTADVTLSQEDISFIDKLFA
notes: pET28a, His-tagged, expressed in E. coli BL21(DE3), Ni-NTA purified
- Km: 1810 ± 130 µM
- kcat: 3.53 ± 0.12 s⁻¹
- kcat/Km: 1950 M⁻¹ s⁻¹

B2: iolS (Bacillus subtilis subsp. subtilis str. 168; F126A/N21A) (protein)
chain: B1 chain with N21A, F126A
notes: as for B1
- Km: 1650 ± 120 µM
- kcat: 6.4 ± 0.25 s⁻¹
- kcat/Km: 3880 M⁻¹ s⁻¹

B3: iolS (Bacillus subtilis subsp. subtilis str. 168; F126L) (protein)
chain: B1 chain with F126L
notes: as for B1
- Km: 1550 ± 220 µM
- kcat: 3.81 ± 0.13 s⁻¹
- kcat/Km: 2450 M⁻¹ s⁻¹

B4: iolS (Bacillus subtilis subsp. subtilis str. 168; N21A) (protein)
chain: B1 chain with N21A
notes: as for B1
- Km: 1160 ± 160 µM
- kcat: 4.1 ± 0.12 s⁻¹
- kcat/Km: 3530 M⁻¹ s⁻¹

B5: iolS (Bacillus subtilis subsp. subtilis str. 168; F126L/I57F) (protein)
chain: B1 chain with I57F, F126L
notes: as for B1
- Km: 1710 ± 110 µM
- kcat: 4.32 ± 0.14 s⁻¹
- kcat/Km: 2510 M⁻¹ s⁻¹

B6: iolS (Bacillus subtilis subsp. subtilis str. 168; I57F) (protein)
chain: B1 chain with I57F
notes: as for B1
- Km: 1720 ± 130 µM
- kcat: 3.96 ± 0.23 s⁻¹
- kcat/Km: 2320 M⁻¹ s⁻¹
